Source: patent US10428134B2, “Immunoglobulins and uses thereof” (JANSSEN PHARMACEUTICA NV, priority 2016, dated 2019)

Experiments:
[1] = molecular target: T1, mouse GCGR (Mus musculus, UniProt Q61606); test: mouse glucagon receptor cAMP assay; format: cell-based; conditions: HEK293 cells
T1 construct: expressed in transfected cells
Procedure: (§1) For each receptor assay, the clonal cells were seeded into 384-well plates at the appropriate densities ranging from 2000-5000 cells/per well. Compounds were diluted in HBSS supplemented with 5 mM HEPES, 0.1% BSA and 0.5 mM IBMX and added to the cells. […] Standard curves were included in each assay plate for back calculation of cAMP concentrations.

[2] = molecular target: T2, rat GCGR (Rattus norvegicus, UniProt P30082); test: rat glucagon receptor cAMP assay; format: cell-based; conditions: HEK293 cells
T2 construct: expressed in transfected cells
T2 sequence (P30082 27-485): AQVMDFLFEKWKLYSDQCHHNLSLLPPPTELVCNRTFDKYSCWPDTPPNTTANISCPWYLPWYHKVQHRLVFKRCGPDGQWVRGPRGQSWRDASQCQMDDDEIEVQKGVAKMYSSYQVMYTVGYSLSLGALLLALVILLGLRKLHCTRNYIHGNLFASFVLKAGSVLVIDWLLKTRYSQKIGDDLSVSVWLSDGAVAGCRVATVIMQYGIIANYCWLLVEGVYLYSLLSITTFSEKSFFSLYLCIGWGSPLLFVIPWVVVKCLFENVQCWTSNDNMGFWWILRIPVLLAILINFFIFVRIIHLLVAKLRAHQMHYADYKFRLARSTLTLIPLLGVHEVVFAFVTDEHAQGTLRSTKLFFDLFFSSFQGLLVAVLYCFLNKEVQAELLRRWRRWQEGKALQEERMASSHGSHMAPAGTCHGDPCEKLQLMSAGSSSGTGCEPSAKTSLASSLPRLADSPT
Procedure: as §1

T1 sequence (Q61606 27-485): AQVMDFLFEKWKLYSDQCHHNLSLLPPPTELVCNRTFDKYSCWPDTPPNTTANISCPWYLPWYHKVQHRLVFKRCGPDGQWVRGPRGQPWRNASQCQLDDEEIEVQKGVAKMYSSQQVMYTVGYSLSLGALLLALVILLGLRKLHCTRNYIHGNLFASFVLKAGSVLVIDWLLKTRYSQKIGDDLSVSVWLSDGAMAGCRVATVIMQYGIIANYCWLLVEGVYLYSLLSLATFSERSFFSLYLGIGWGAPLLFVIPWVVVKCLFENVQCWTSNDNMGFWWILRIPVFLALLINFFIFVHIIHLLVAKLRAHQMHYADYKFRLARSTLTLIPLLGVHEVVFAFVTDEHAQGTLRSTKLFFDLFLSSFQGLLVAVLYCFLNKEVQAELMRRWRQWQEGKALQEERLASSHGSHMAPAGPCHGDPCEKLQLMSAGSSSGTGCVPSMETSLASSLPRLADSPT

Substance: Dulaglutide: the GLP1R agonist, dulaglutide [reference compound]
- EC50 [1]: > 100 nM
- EC50 [2]: > 100 nM
